This series can be described thus: soluble on expression in E. coli; label from the status in PepcDB or PDB records.
For “GPGSMCTAHSQSYLPLPPPTRTSTHTLTANVTQLRCRRRCVTPAIRTSRPPPAVAPPAALPAAHRPCICLLLHDLSPLPLLVLPPSLPLCAAPLHAAAHLPSHRTPSRPPMSAYHSSNPVEARRAECARLQAKYPGHVAVVVEAAEKAGSKVHFLALPRDATVAELEAAVRQALGTSAKKVTLAIEGSTPAVTATVGDIADACKRDDGFLYVSVRTEQAMGGIAGLCFASDSGGI”, the “soluble on expression in E. coli” value is “not soluble”.

Consider “MYMTGHSLGCYLAQIAAVEAYQKYPDFYNHVLRKVTTFSAPKVITSRTVWNAKNGFWDVGLESRKLAVSGKIKHYVVDNDNVVTPLIHNNRDIVTFTGNSRFKHRSRGYFESPMNDIPNFNIGKQATLDKHGYRDPKLDKVRFFKKQALPRSSSQPSAEPMENIASGKQVTQSSTAFGGDARRAVDGKVDGNYGHNSVTHTNFQSKPWWQVDLAKEETIRQINIYNRTDTAQDRLANFDVILLDSSGKEIE”, for which the “soluble on expression in E. coli” value is recorded as “not soluble”.

For the sequence “YVWDTKMNVGLRVGAAAEFMIGSRGFYLAPGLNYTMKGSKTEWDIPEMVPGTYITMVSTRLHYLQLPINAGMRFDLMNDMAVSIEAGPFLAYGIYGTYRQKLEGWKPNNYSTEFFGPTLGGPTNIRWDIGANIIAAFHYKRYYIQIGYEHGFVDIVSGGGSDIPRLNDNRQSSSTTALREKGNNEYAYNRDFFVGIGYRF”, the “soluble on expression in E. coli” value is given as “not soluble”.

Take “MSLAADKVVVMLNWYVYGEHAPFYYGKAKGIYAAEGIDLEIQEGRGSAATTQAVAAKTADFGYVDVPTMMRAAIKGAPVVATGVLLQTSPMSAMGFVDKNIRKPEDIKGKTVAITPADSMTQIWPLFLKKTGLKESDFQTVAGDGQTKLNAVINGQADLLLGYVMDQSMKIKDATGKDVYPIKFADYGINMVSSGIIANSDYVKANADLVRRFMSATTKAVEAAEKEPKAAAQSILDANPKGGKIDTLTQGFELTIPLYRTAATKSKRPFQVTEQNMTETVNLLVEYGGLDAKAKDNPKAFYTNDYLPKSGEGHHHHHH”: the “soluble on expression in E. coli” value was “soluble”.

For “PQASAKEYVTTTGLSPDGNQYSIGWEVPSTQEPARRSKRSTKDYAFETNQLENGMQTLIHIENSEAPTEYRFPLSLPQEAEVIPFSEGSED”, the “soluble on expression in E. coli” value is on record as “not soluble”.

As to “MGSDKIHHHHHHMIKVEDKSRCCGCEACVSSCPLQCIELVKDKEGFMYPQVDTARCIDCGKCEKACPELVEAKGSGGVTVYAAVNPDKEARLASSSGGIFTLLAESVLAENGVVFGARFDKDWNVIHDYTETKEGLEAFRGSKYVQSRTGETFKQAEQFLKEGRKVLFSGTPCQIMGLKRYLHKEYDNLLAVDFVCHGVPSPLVWRKYIEETLVRQDEKIQFRPTLNHLFLDEMPLIEGISFRNKCLGWKKYSFALILSKVTTAGEKNTVSLSRIFYDNAYMKAFLANLSLRPACYRCPAKSGKSGSDITLGDFWGIEKIAPELDDDRGCSLLIINNPKVRDELRKKGCLLAEFPISEILPYNLSTAYSVSMPNNRKFFWFMFDKAGFHKALMLATSTTFPIRALRKLFRLI”, the “soluble on expression in E. coli” value was “not soluble”.

For “MNPTVLVAEDDPVQRLLLRRALEPLGVEVRLARHGREALDLALEAPPHLVLTDLHMPHMDGLELTRRLKALDPLLPVLLFTADRDHETRLRGLEAGADDFLNRPFDLTELRLRVKGHLERRRLQEKLEDLERALLALVRAVEAKDPYTAGHAERVARYALLGARELGAGEEELRDLHMGALLHDVGKIGLPDRILRGEAPLSAADWRLIQAHPVKGDEILTPLKAHPRLRPYVRWHHEKLDGSGYPDGLTEIPLLVQVLSAADMYDALTSRRTYREAVKPEEALEALEREAREGRLALEAVRALRSGLRRGASEAKGHVLHL”, the “soluble on expression in E. coli” value was “soluble”.

On to “MSLKKLRIGVVGLGGIAQKAWLPVLAAASDWTLQGAWSPTRAKALPICESWRIPYADSLSSLAASCDAVFVHSSTASHFDVVSTLLNAGVHVCVDKPLAENLRDAERLVELAARKKLTLMVGFNRRFAPLYGELKTQLATAASLRMDKHRSNSVGPHDLYFTLLDDYLHVVDTALWLSGGKASLDGGTLLTNDAGEMLFAEHHFSAGPLQITTCMHRRAGSQRETVQAVTDGALIDITDMREWREERGQGVVHKPIPGWQSTLEQRGFVGCARHFIECVQNQTVPQTAGEQAVLAQRIVDKIWRDAMSEEGGSHHHHHH”, for which the “soluble on expression in E. coli” value is “soluble”.

Take “MSDLQKLIQGKIKTIAFAHDSTRVIQCFIQYGNEEQRKQAFQELQGDLVELSKAKYSRNIVKKFLMYGSKPQAAEIIRSFKGHVRKMLRHSEASAIVEYAYNDKAILEQRNMLTEELYGNTFQLYKSADHPTLDKVLELQPAKLELIMDEMKQVLTPMAQKEAVIKHSLVHKVFLDFFTYAPPKPRSELIEAIREAVVYLAHTHDGARVAMHCLWHGTPKDRKVIVKTMKTYVERVANVSAARARFLKSD”: the “soluble on expression in E. coli” value is reported as “not soluble”.

“MAHHHHHHMTDMHTTLSRVILVAMLHDVADHKYDSDGTLRHRVEAFIKEERNATIETAESHAYALQTIEAVSFSAEKQRGKRWFTSVLPTEWLRVRDIVSDADKLEAIGYAGLLRCLEYTSHLLLPRGKTTEGEQHMKEGGEGRPHWSREFERQCLQNVREHFEEKLNLLPTEYIVTEPGRFLALPRRAEMVEALHQWEENGLPPLS”: the “soluble on expression in E. coli” value is reported as “not soluble”.

Consider “MGHHHHHHSHANCAENEEGCTPLHLACRKGDGEILVELVQYCHTQMDVTDYKGETVFHYAVQGDNSQVLQLLGRNAVAGLNQVNNQGLTPLHLACQLGKQEMVRVLLLCNARCNIMGPNGYPIHSAMKFSQKGCAEMIISMDSSQIHSKDPRYGASPLHWAKNAEMARMLLKRGCNVNSTSSAGNTALHVAVMRNRFDCAIVLLTHGANADARGEHGNTPLHLAMSKDNVEMIKALIVFGAEVDTPNDFGETPTFLASKIGRLVTRKAILTLLRTVGAEYCFPPIHGVPAEQGSAA”, for which the “soluble on expression in E. coli” value is “not soluble”.

For “SSNQTPYIGSKISLISKLDIRYEGILYTVDTNDSTIALAKVRSFGTEKRPTANPVAARDDVYEYIIFKASDIKDLIVCDTPKMANIGGGLPYDPAIISVSSRSAPASDGAPAASAGSSRAGTPSRNSPLGQIIQNQRPGRGGYQQNFQANRGYNNYRGGFAGGYNNQRGHNNYGVPRVNHREKLKFESDFDFEKANEKFQEVLVDNLEKLNIEDKAEPEVEEKKDAAFYDKKTSFFDNISCESLEKAEGKTGRPDWKKERETNQETFGHNAVRSLNYRRGFGGRGRGGNRGYGGYNNGYQHQHQHRGGYNGGYRQNNGGYRRGGYAPRDNQGNTAAAAEQ”, the “soluble on expression in E. coli” value is recorded as “not soluble”.

With “MAHHHHHHMSAEGLSRFFTENLTEEGRSDLNQWEAKTLEFAQRVNRDGCEGVAFITSGGTAVPLEVHAVRFVTNFSSGGRGAVLVEELLARGWACILLRSKTSQLPFRRLVDNMTTEQFFAELNAPQKSCDVSAAIEAYTKYKSRFLEIPYYTVVEYLYLFSLLTGTLSHRAECLRQTPMMLLAAAAVSDYYIPESRLSHHKMSGGDGLTIQFNNVPKILDLISEEWHGSSRAAPRYLITFKLETEEEQLKAKALRNLGLYRCDAVVANMLQNYRERVLVFWNGEEQNPTLLHRSPNGSVESLMIDHVLQRIKNHAKGCGMQYKLEGRRR”, the “soluble on expression in E. coli” value is recorded as “soluble”.

Take “MMTQGPNLIGIHTNTKENEETQKFVNWFLNTSLTWDNNESKTPAQYFTESASYILPLKETFTGSNNKGQSGKNDGKNSNNTFKAKALELFKEQSENKIVGYSDPSDFRGGKFRESIGSAFNATVNSHVDFNTFVANFRANLGSGYDK”: the “soluble on expression in E. coli” value is recorded as “soluble”.

On to “GDSSSSGNSFVGLRVVAKWSSNGYFYSGKITRDVGAGKYKLLFDDGYECDVLGKDILLCDPIPLDTEVTALSEDEYFSAGVVKGHRKESGELYYSIEKEGQRKWYKRMAVILSLEQGNRLREQYGLGPYEAVTPLTKAADISLDNLVEGKRKRRSN”, for which the “soluble on expression in E. coli” value is given as “soluble”.

With “MMLSSNSFSLNLSNEDYIWPLEEDQEETTDSSGPMMLSPPLPEGACFNFEDRNTVYVHSRRPEDTPKSFELYSIPEDLALDSPFPSCEQTTFFTTKPDKSFLLDIKNSSPLNIGRMQNSRS”, the “soluble on expression in E. coli” value is reported as “soluble”.

For the sequence “GPGSMAAVPPQKAANIAQRLQPQCATVGPATLRMSAGKSLKIRENAMYSNMPPPTAFTTPCSATNAGPVMEVCVPFIVMTPIAMPRGTETEKIIVITTSSMTLMEASTSREPSAIPSNSWWNDNATSSVLMSLSLAIPTERPKNTLCEAKPNSIKIAAATRLALFR”, the “soluble on expression in E. coli” value is listed as “not soluble”.

For “MLSIKDLHVSVEDKAILRGLSLDVRPGEVHAIMGPNGSGKSTLSATLAGREDYEVTGGTVEFKGKDLLALSPEDRAGEGIFMAFQYPVEIPGVSNQFFLQTALNAVRSYRGQETLDRFDFQDLMEEKIALLKMPEDLLTRSVNVGFSGGEKKRNDILQMAVLEPELCILDESDSGLDIDALKVVADGVNSLRDGKRSFIIVTHYQRILDYIKPDYVHVLYQGRIVKSGDFTLVKQLEEQGYGWLTEQQ”, the “soluble on expression in E. coli” value was “not soluble”.

For the sequence “MGSDKIHHHHHHMRAIFFNGDLQYTTDYPDPVRQPGEALIRPHLVGICNTDLEITRGYMNFRGVLGHEFVGTVVASDDPSWQGKRVVGEINAACRRCPTCLRGDVSHCPQRTTLGIYRRDGAMADLFTLPEACLHEVPASVSDEAAVFTEPLAAALEIVEQSHIRPTERVAVVGDGKLGAMIVQVLRLTGCELTLIGRHPERWDVYRQQGITCVRSTDLPGTLFDVVVDCTGNPSGLNIARQIIRPRGRLILKSTFAAETQLNLSMVVVDEIQLIGSRCGPFAPALRLLERGLIATTPLISARYPLAEGLQAFAAAPGQLKVLLSV”, the “soluble on expression in E. coli” value is on record as “not soluble”.

“MGSDKIHHHHHHMNIINFIKNYLSTPMSSLTFAPAHQLARMIRNREVSAVEVLNAYLAQIAKHNSKLNAICTLDEENAYLRARLADEALARGENWGALHGVPITIKDIFETAGLLTTAGYIPLKDYVPQQDATVVARLRTAGAVILGKTNMAELAGDYQSTNSLFPQVNNPWNLDYTAGGSSGGSAAAVAAGLSSLDLGNDIAGSVRQPAHFCGVYGLKPTDRRISTAGQIPEVPGMPVCLRQMMTVGCFARSLEDIRLCFSLIAGSDLRRPDVPPIPLDNPSGKSLQNLKIAWLDEWVEVPVASEIQVAMTAIAHTLTQAGVQIEPWLPKNFDLSKTLNLYGRMAAYINIYAQPVDRYNLHRSWQQIFRTATQGEKELRKLGDFSRLLPDLLNPRLKGYFEVLTERDCFTAQMDEALEPWDAWLTPVAATPAFTHRPAWSAIEIDGRPYPHAVANGAYTMPFNLSGHPAVVIPIGHTQDGLPIGMQVVGKRWREMELLAIAQELDKVINAFRSPFEII”: the “soluble on expression in E. coli” value was “not soluble”.

Consider “MTDKVIATHNGNFHADDVFSIAALKNIFPSFKLIRTRDLEVIGKADIVIDVGGEYDADAGRFDHHQRGGAGERENGIPYSSFGLIWQKYGLAICQGNQEVANSVDAGLVSTIDAIDCGHVEGVAQGISLSQTISMFNPTWQEDSHFDTCFDEAVDFASRVLTRFIASASGGINAKDIVAKAIDNAEDSRVIVLEKYTPWKRTVHALSEEALYMVYPSPSGQWRIQTVPVEPGSFEDRKPLPKQWAGLSDDALKEVTGIDDAMFCHNGLFIAGAESFESTMKMASIALQALEHHHHHH”, for which the “soluble on expression in E. coli” value is recorded as “soluble”.

As for “MGTYTVNVSSLNVRTGPSTSHTVLGSVNKGKTVQVVSEVQDWFKINFNGGTGYVSKDFVTKGGSAVLEHHHHHH”, the “soluble on expression in E. coli” value is listed as “not soluble”.

Consider “MGSDKIHHHHHHMLTSSWIKQLPLTAITQVTPVGGGDVNQAYRIDTATKPYFLLVQPGYPADFYAGEIAGLKAFDEAQILAPRVIANGQIEGDGFLLLSFLTSGNGSQRDLGRLVAHLHQHHEPNGRFGFDYPYAGTSVSFTNTWTDSWADLFIHQRLDKLAAHLLKKELWQADDEATFQQVRTIISKTLAHHHSDASLLHGDLWGGNYMFTADGQPALIDPAAVYGDRELDIGVTTVFGGFTQDFYTGYQEVYPLDAGYHFRLDFYRLYYLMVHLDKFGMGYAGSVAAVMNQILDHGLTE”, for which the “soluble on expression in E. coli” value is given as “not soluble”.
